Numbering of substitutions follows the chain as printed.
Assays:
[1] = target: Muc1ムチン bearing the CA6 sialoglycotope (DS6 antigen), as expressed by CA6-positive human tumour cell lines (human) (UniProt P15941); assay: cell-based or functional assay
[2] = target: Muc1ムチン bearing the CA6 sialoglycotope (DS6 antigen), as expressed by CA6-positive human tumour cell lines (human) (UniProt P15941); assay: flow cytometry on Caov-3 cells, apparent Kd (Fig. 20)
[3] = target: Muc1ムチン bearing the CA6 sialoglycotope (DS6 antigen), as expressed by CA6-positive human tumour cell lines (human) (UniProt P15941); assay: flow cytometry, direct binding to KB cells, apparent Kd (Fig. 18)
[4] = target: Muc1ムチン bearing the CA6 sialoglycotope (DS6 antigen), as expressed by CA6-positive human tumour cell lines (human) (UniProt P15941); assay: flow cytometry competition; competitor 2 nM biotin-muDS6, streptavidin-DTAF (Fig. 19)

UniProt P15941, sequence (P15941 24-1255): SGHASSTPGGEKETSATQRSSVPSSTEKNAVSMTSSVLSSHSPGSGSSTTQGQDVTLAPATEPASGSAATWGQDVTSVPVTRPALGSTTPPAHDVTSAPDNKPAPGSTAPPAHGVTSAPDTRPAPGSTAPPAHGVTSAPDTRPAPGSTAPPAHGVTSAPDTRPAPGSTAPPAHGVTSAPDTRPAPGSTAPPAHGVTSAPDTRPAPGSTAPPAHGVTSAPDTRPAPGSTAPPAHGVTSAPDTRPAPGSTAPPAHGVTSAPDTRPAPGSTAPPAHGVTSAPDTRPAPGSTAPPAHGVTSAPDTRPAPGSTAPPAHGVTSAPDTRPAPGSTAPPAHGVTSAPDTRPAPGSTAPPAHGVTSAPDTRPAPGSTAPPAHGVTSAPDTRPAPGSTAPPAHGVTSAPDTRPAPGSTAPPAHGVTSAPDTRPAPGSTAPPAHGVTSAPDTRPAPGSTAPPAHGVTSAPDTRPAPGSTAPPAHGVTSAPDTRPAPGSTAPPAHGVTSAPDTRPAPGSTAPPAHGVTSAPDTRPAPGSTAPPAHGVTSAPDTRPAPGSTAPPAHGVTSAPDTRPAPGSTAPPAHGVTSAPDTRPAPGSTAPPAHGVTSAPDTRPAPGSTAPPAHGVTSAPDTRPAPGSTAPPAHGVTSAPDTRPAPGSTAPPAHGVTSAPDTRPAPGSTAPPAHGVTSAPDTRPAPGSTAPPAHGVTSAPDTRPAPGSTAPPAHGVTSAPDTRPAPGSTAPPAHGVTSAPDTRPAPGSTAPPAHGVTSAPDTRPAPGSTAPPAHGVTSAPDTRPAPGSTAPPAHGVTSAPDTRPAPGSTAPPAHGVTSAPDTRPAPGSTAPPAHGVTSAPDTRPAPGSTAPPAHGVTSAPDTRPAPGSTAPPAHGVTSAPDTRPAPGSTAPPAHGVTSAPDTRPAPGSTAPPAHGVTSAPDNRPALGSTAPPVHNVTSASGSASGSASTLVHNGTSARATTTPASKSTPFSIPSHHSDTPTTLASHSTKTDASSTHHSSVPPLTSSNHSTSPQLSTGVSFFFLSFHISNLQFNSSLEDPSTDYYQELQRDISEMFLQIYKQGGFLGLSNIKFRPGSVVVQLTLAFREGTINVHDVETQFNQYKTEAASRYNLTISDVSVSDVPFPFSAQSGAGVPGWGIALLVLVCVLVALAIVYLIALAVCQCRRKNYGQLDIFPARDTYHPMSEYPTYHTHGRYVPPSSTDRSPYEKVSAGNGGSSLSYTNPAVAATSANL

B1: muDS6−DM1細胞傷害性コンジュゲート (muDS6-SPP-DM1) (antibody, from another filing, V domains shown)
VH: QAYLQQSGAELVRSGASVKMSCKASGYTFTSYNMHWVKQTPGQGLEWIGYIYPGNGATNYNQKFKGKATLTADPSSSTAYMQISSLTSEDSAVYFCARGDSVPFAYWGQGTLVTVSA
VL: QIVLTQSPAIMSASPGEKVTITCSAHSSVSFMHWFQQKPGTSPKLWIYSTSSLASGVPARFGGSGSGTSYSLTISRMEAEDAATYYCQQRSSFPLTFGAGTKLELKR
IC50, colony formation assay on Caov-3 cells [1]: 0.8 nM
Kd [2]: 3.9 nM

B2: huDS6v1.01−SPDB−DM4コンジュゲート (antibody, from another filing, human IgG1, V domains shown)
VH: B1 VH with Y3Q, Q5V, L11V, R13K, S14P, K65Q, P74T
VL: B1 VL with Q1E, I10T, K18R, R76S
IC50, in vitro cytotoxicity (MTT) on WISH cells [1]: 0.44 nM

B3: DS6のキメラ型 (chimeric DS6, human constant regions and murine variable regions) (antibody, from another filing, V domains shown)
VH: B1 VH
VL: B1 VL
Kd [3]: 0.69 nM
EC50 [4]: 1.7 nM

B4: ヒト化DS6 1.01型 (humanized DS6 version 1.01) (antibody, from another filing, V domains shown)
VH: B1 VH with Y3Q, Q5V, L11V, R13K, S14P, K65Q, P74T
VL: B1 VL with Q1E, I10T, K18R, R76S
Kd [3]: 0.82 nM
EC50 [4]: 3 nM

B5: ヒト化DS6 1.21型 (humanized DS6 version 1.21) (antibody, from another filing, V domains shown)
VH: B1 VH with Y3Q, Q5V, L11V, R13K, S14P, K65Q
VL: B1 VL with Q1E, I10T, K18R, R76S
Kd [3]: 0.85 nM
EC50 [4]: 1.9 nM
